This is an account of results in article PMC5772480, “Galectin-13, a different prototype galectin, does not bind β-galacto-sides and forms dimers via intermolecular disulfide bridges between Cys-136 and Cys-138” (Scientific Reports, 2018).

For test [1], the target named is T1, Gal-13 (galectin-13, placental protein 13, PP13) (Homo sapiens, UniProt Q9UHV8, R53H).
T1 construct: gene LGALS13; full length 1-139, synthetic gene in pET28a, E. coli BL21(DE3); N-terminal His tag removed by thrombin; disulfide-linked homodimer
T1 sequence (Q9UHV8 1-139 R53H): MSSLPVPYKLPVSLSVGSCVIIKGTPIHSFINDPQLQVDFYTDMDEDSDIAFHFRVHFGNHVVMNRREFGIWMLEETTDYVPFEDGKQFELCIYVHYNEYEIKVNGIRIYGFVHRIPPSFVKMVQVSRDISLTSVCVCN
The test can be described thus: inhibition of hemagglutination of chicken erythrocytes. Format: cell-based. The note with it: pH 7.4 PBS, on ice; minimum inhibition concentration. The source says: inhibition of hemagglutination of chicken erythrocytes on Gal-13 (galectin-13, placental protein 13, PP13) | maltose and arabinose could inhibit the biological activity of […]

In test [2] the target is T2, Galectin-13 (wild type) (human), Q9UHV8.
T2 chain: T1 sequence (Q9UHV8 1-139 R53H) with H53R
The test can be described thus: non-reducing SDS-PAGE; SDS-PAGE of Gal-13 with or without DTT reduction; dimer band at approximately 38 kDa without DTT. The settings on record: remark: other sources report otherwise.

Test [3] has the same target. The test can be described thus: native gel or EMSA; native PAGE, 15% separating gel, Tris-glycine buffer, 5 μg protein per lane, 90 V for 3 h; migration compared with Gal-1 (dimer) and C136S/C138S (monomer). The note with it: remark: other sources report otherwise. (In general: In EMSA bound probe runs differently from free probe, usually more slowly.)
Test [4] has the same target. The test can be described thus: SEC; Superdex 75 10/300, PBS pH 7.4, 25 °C, 100 μg protein loaded, 0.5 ml/min; apparent molecular weights from a standard curve; Gal-13 also run in the presence of 10 mM DTT (mostly monomer, small amount of dimer). The note with it: remark: other sources report otherwise.

Residue numbers refer to the chain shown, from its start. ≈ marks a conversion by molar mass, not a printed value.

Turning to `OC[C@H]1O[C@H](O[C@H]2[C@H](O)[C@@H](O)C(O)O[C@@H]2CO)[C@H](O)[C@@H](O)[C@@H]1O` (some centres unmarked) [maltose], the MIC in test [1] is reported as 12.5 mM (≈ 4.28 mg/mL).
The molecule `OC1OC[C@H](O)[C@H](O)[C@H]1O` (some centres unmarked) [arabinose] had an MIC in test [1] of 200 mM (≈ 30 mg/mL).

B1: Galectin-13 (wild type), Q9UHV8 1-139 (natural protein)
chain: T1 sequence (Q9UHV8 1-139 R53H) with H53R
modifications: here or on the partner: intermolecular disulfide bonds Cys136-Cys138' and Cys138-Cys136' in the dimer; intermolecular disulfide bonds Cys136-Cys138' and Cys138-Cys136' in the dimer
As a reminder, the stoichiometry N is the number of molecules, sites or subunits per partner or assembly. On to B1, for which the stoichiometry N in test [2], in test [3] and in test [4] was 2 throughout.
